Experimental data: PMC3080137, “The Anti-Apoptotic Bcl-xL Protein, a New Piece in the Puzzle of Cytochrome C Interactome” (PLoS ONE, 2011)

Target: human Bcl-xL (residues 1-209, lacking the C-terminal hydrophobic tail) (human, UniProt Q07817-1 1-209, 15N-labelled where it was the observed protein)
Test: NMR titration; 15N-Bcl-xL titrated with unlabeled cytochrome c up to Bcl-xL:cytochrome c 1:10, 1H-15N HSQC; Kd from weighted average chemical shift variations; 300 K; 50 mM sodium phosphate pH 7.3, 150 mM NaCl, 1 mM DTT, 10% D2O
Details: both partners purified

human Bcl-xL (residues 1-209, lacking the C-terminal hydrophobic tail), sequence (Q07817 1-209): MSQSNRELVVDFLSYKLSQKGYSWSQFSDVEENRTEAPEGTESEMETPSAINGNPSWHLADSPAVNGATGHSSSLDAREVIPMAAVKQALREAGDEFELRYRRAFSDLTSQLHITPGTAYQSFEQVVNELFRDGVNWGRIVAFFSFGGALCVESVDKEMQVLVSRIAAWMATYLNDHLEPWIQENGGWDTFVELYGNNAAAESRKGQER

Kd: 1000 to 3000 µM
B1: human cytochrome c (natural protein)
chain: not shown
modifications: heme, iron(II) (reduced) form; 15N-labelled where it was the observed protein
notes: cytochrome c, human, full length; also called reduced cytochrome c; source: expressed and purified as reported in the literature [36]; unlabeled and 15N-labeled form
